According to patent US20080089862A1, “PROTEASE INHIBITORS AND METHOD OF SCREENING THEREOF” (priority 2005, published 2008):
No end group written: not given here.

Target: T1, MBP-scNS3 (Hepatitis C virus genotype 1b, UniProt P26663)
T1 construct: made in house
Test: Bacterial genetic screening, blue/white colonies on X-gal indicative plates
Assay type: cell-based, Hepatitis C virus (HCV) genotype Ib
Settings: IPTG-induced test bacteria (pMGT14); blue = NS3 inhibited
Source text: Applying the bacterial genetic screening to isolate NS3-inhibitory scFvs. Affinity selected phages were pooled and used as source for scFv DNA by digestion of phagemid DNA with Ncol and Notl. The pooled insert DNA was cloned into pMALc-NN that had been digested with the same enzymes essentially as described (Bach et al., 2001). In pMALc-NN, expression of MBP-scFvs is under the control of an IPTG-inducible tac promoter and the plasmid carries an ampicillin resistance cassette and the colEl origin of replication and is thus compatible with pMGT14 or pMGT15. The plasmid pool was introduced into E. coli TG-I cells already containing the pMGT14 plasmid. The transformants were plated to yield individual colonies on 2xYT agar plates supplemented with 0.004% (w/v) X-gal, 100 μg/ml ampicillin, 50 μg/ml kanamycin, 0.2% arabinose and 0.05 mM IPTG. Blue colonies were picked and pMALc-NN-scFv DNA was recovered and re-introduced into pMGT14 expressing cells to validate the results of the initial screening.
The expression platform was constructed as follows: C-terminal peptides were introduced by PCR using pMALc-NN (Bach et al., 2001) as template and recloning into the same backbone. The ligated vectors were introduced into the “bacterial test strain” and IPTG induction was used to overexpress the peptides. […]

## EASEDVVC (not fully specified) ["product-like" peptide (NS5A/B site P side), control construct]
  colony colour on X-gal plates: blue

## DYKDDDDK [FLAG epitope]
  colony colour on X-gal plates: colorless
